According to publication PMC6677171, “Subunit interactions and arrangements in the fission yeast Mis16–Mis18–Mis19 complex” (Life Science Alliance, 2019):

Target: Mis16 (S. pombe), full length, affinity tag removed (S. pombe), O94244
Experiment: ITC; iTC200, 30°C; 50 mM Tris pH 7.5, 100 mM NaCl, 4% glycerol, 0.5 TCEP; 26 μM protein in the cell, 260 μM peptide injected

Sequence of Mis16 (S. pombe), full length, affinity tag removed (S. pombe), O94244 (O94244 whole entry): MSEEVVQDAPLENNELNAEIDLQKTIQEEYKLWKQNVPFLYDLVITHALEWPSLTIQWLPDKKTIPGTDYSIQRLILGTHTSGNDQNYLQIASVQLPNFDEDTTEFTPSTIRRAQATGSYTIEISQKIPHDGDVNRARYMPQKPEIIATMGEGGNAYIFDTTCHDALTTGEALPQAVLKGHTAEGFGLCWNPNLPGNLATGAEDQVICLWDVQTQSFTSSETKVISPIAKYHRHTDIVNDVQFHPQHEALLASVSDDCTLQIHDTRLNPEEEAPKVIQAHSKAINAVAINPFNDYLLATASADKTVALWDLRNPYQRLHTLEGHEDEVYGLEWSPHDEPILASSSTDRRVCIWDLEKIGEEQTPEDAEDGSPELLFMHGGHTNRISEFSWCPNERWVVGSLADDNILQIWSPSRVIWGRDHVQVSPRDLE

LHNRAFLRRNVRAVKM (modifications not checked) [Mis19 C-terminal peptide (residues 97–112) with V101 mutated, O42995 97-112] was tested. Which Kd did it give?
The Kd was 51 nM.
